Here are results for nine molecules from patent US20150203577A1 (Chugai, published 2015).

T1: mouse FcγRII (mouse, UniProt P08101 30-210)
T1 construct: Extracellular domain with C-terminal His tag; also called mFcγRII; mFcgRII
T1 sequence: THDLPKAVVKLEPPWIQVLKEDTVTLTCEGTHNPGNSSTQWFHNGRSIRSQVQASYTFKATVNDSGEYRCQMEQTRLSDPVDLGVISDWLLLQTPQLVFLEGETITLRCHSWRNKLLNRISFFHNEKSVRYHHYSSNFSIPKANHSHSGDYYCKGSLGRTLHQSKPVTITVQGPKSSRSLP

T2: mouse FcγRIII (mouse, UniProt P08508 31-215)
T2 construct: Extracellular domain with C-terminal His tag; also called mFcγRIII; mFcgRIII
T2 chain: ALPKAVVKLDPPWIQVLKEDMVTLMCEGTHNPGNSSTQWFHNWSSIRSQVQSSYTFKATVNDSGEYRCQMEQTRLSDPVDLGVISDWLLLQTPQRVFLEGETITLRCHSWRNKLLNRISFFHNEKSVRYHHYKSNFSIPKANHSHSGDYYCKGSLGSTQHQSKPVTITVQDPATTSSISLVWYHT

B1: MB834 (antibody, mouse IgG1, kappa)
heavy: QVQLQESGPGLVKPSETLSLTCAVSGHSISHDHAWSWVRQPPGEGLEWIGFISYSGITNYNPSLQGRVTISRDNSKNTLYLQMNSLRAEDTAVYYCARSLARTTAMDYWGEGTLVTVSSAKTTPPSVYPLAPGSAAQTNSMVTLGCLVKGYFPEPVTVTWNSGSLSSGVHTFPAVLQSDLYTLSSSVTVPSSTWPSETVTCNVAHPASSTKVDKKIVPRDCGCKPCICEPNEVELVFIFPPKPKDVLTITLTPKVTCVVVDISKDDPEVQFSWFVDDVEVHTAQTQPREEQFNSTFRSVSELPIMHQDWLNGKEFKCRVNSAAFPAPIYRTISKTKGRPKAPQVYTIPPPKEQMAKDKVSLTCMITDFFPEDITVEWQWNGQPAENYKNTQPIMDTDGSYFVYSKLNVQKSNWEAGNTFTCSVLHEGLHNHHTEKSLSHSPGK
light: not shown
notes: CH name; VH H237 + CH, L chain MRAL-k0; copies: 2 + 2
B2: MB849 (antibody, mouse IgG1, kappa)
heavy: B1 heavy with A322D, A323G, P327Y, Y329E, R330K
light: not shown
notes: as for B1
B3: MB851 (antibody, mouse IgG1, kappa)
heavy: B1 heavy with A322D, A323G, Y329E
light: not shown
notes: as for B1
B4: MB848 (antibody, mouse IgG1, kappa)
heavy: B1 heavy with N320D, A322D, A323G, Y329E, R330K
light: not shown
notes: as for B1
B5: MB850 (antibody, mouse IgG1, kappa)
heavy: B1 heavy with A322D, A323G, R330K
light: not shown
notes: as for B1
B6: MB852 (antibody, mouse IgG1, kappa)
heavy: B1 heavy with Q291L, N320D, A322D, A323G, Y329E, R330K
light: not shown
notes: as for B1
B7: MB846 (antibody, mouse IgG1, kappa)
heavy: B1 heavy with K264D, A322D, A323G, Y329E, R330K
light: not shown
notes: as for B1
B8: MB835 (antibody, mouse IgG1, kappa)
heavy: B1 heavy with K264D, Y329E, R330K
light: not shown
notes: as for B1
B9: MB847 (antibody, mouse IgG1, kappa)
heavy: B1 heavy with Q291L, A322D, A323G, Y329E, R330K
light: not shown
notes: as for B1

Substitutions are numbered along the chain they refer to.

One experiment addresses T1, mouse FcγRII. Briefly: SPR (Biacore T200); KD of H237-mIgG1/MRAL-k0 / KD of variant. In general terms: In SPR one partner is held on a chip, and binding of the other changes the refractive index at the surface.
Take B1: the “relative mFcγRII-binding activity (mIgG1 = 1)” value is 17 fold.
On the same count and under the same terms, next, B2: 31.4 fold.
Consider B3, for which the “relative mFcγRII-binding activity (mIgG1 = 1)” value stood at 43.8 fold.
For the molecule B4, the “relative mFcγRII-binding activity (mIgG1 = 1)” value came to 45.8 fold.
Turning to B5, the “relative mFcγRII-binding activity (mIgG1 = 1)” value is 43.7 fold.
In the case of B6, the “relative mFcγRII-binding activity (mIgG1 = 1)” value came out at 61 fold.
With B7, the “relative mFcγRII-binding activity (mIgG1 = 1)” value was determined as 72.1 fold.
As to B8, the “relative mFcγRII-binding activity (mIgG1 = 1)” value turned out to be 26.3 fold.
Same read-out and setting: next, B9: 43.7 fold.

In another experiment the target is T2, mouse FcγRIII. The experiment is described as above.
As for B1, the “relative mFcγRIII-binding activity (mIgG1 = 1)” value was 0.29 fold.
As to B2, the “relative mFcγRIII-binding activity (mIgG1 = 1)” value worked out at 0.65 fold.
As to B3, the “relative mFcγRIII-binding activity (mIgG1 = 1)” value was found to be 0.96 fold.
Consider B4, for which the “relative mFcγRIII-binding activity (mIgG1 = 1)” value worked out at 0.92 fold.
As to B5, the “relative mFcγRIII-binding activity (mIgG1 = 1)” value was 0.79 fold.
The same measure, in the same setting: next, B6: 1.83 fold; B7: 2.12 fold.
Still for that read-out and setting: to B8 belongs 0.7 fold; to B9, 1.33 fold.

The target in the next experiment is T1, mouse FcγRII. Description: SPR (Biacore T200); KD of H237-MB630/MRAL-k0 / KD of variant.
Consider B1, for which the “Relative mFcγRII-binding activity (MB630 = 1)” value is 1.29 fold.
On to B2, for which the “Relative mFcγRII-binding activity (MB630 = 1)” value was 2.97 fold.
Turning to B3, the “Relative mFcγRII-binding activity (MB630 = 1)” value was found to be 4.13 fold.
As to B4, the “Relative mFcγRII-binding activity (MB630 = 1)” value worked out at 4.33 fold.
For B5, the “Relative mFcγRII-binding activity (MB630 = 1)” value was found to be 4.12 fold.
Take B6: the “Relative mFcγRII-binding activity (MB630 = 1)” value was 5.76 fold.
Regarding B7, the “Relative mFcγRII-binding activity (MB630 = 1)” value worked out at 6.8 fold.
As for B8, the “Relative mFcγRII-binding activity (MB630 = 1)” value is 2 fold.
For the molecule B9, the “Relative mFcγRII-binding activity (MB630 = 1)” value was determined as 4.12 fold.

The target in the next experiment is T2, mouse FcγRIII. Described as above.
Consider B1, for which the “Relative mFcγRIII-binding activity (MB630 = 1)” value is 1.25 fold.
The same measure, in the same setting: next, B2: 3.54 fold; B3: 5.23 fold; B4: 5 fold.
With B5, the “Relative mFcγRIII-binding activity (MB630 = 1)” value was determined as 4.3 fold.
With B6, the “Relative mFcγRIII-binding activity (MB630 = 1)” value worked out at 10 fold.
On to B7, for which the “Relative mFcγRIII-binding activity (MB630 = 1)” value came out at 11.6 fold.
Take B8: the “Relative mFcγRIII-binding activity (MB630 = 1)” value is 3.05 fold.
For B9, the “Relative mFcγRIII-binding activity (MB630 = 1)” value was 7.24 fold.
